± gives the uncertainty stated by the source.
Assay: abundance fitness (aPCA) (normalised: wild type 0, dead -1); higher = more abundant; growth selection in yeast, the domain comes from the species named
Conditions: Homo sapiens
In the case of “NEDD4-like E3 ubiquitin-protein ligase WWP2 P448G, O00308”, the abundance fitness is reported as -0.046 ± 0.054.
“NEDD4-like E3 ubiquitin-protein ligase WWP2 G486I, O00308” showed an abundance fitness of -0.028 ± 0.072.
In the case of “NEDD4-like E3 ubiquitin-protein ligase WWP2 S487F, O00308”, the abundance fitness is reported as -0.112 ± 0.057.
“NEDD4-like E3 ubiquitin-protein ligase WWP2 Y454D, O00308” showed an abundance fitness of -0.461 ± 0.12.
For “NEDD4-like E3 ubiquitin-protein ligase WWP2 T483V, O00308”, the abundance fitness was -0.03 ± 0.052.
For “NEDD4-like E3 ubiquitin-protein ligase WWP2 G478I, O00308”, the abundance fitness was 0.136 ± 0.073.
With “NEDD4-like E3 ubiquitin-protein ligase WWP2 Y461T, O00308” the abundance fitness was -0.445 ± 0.067.
Substance “NEDD4-like E3 ubiquitin-protein ligase WWP2 M452Y, O00308” has an abundance fitness of -0.159 ± 0.049.
“NEDD4-like E3 ubiquitin-protein ligase WWP2 A490I, O00308” gave an abundance fitness of 0.089 ± 0.077.
Work on “NEDD4-like E3 ubiquitin-protein ligase WWP2 F462T, O00308” yielded an abundance fitness of -0.87 ± 0.16.
“NEDD4-like E3 ubiquitin-protein ligase WWP2 F462V, O00308” showed an abundance fitness of -0.939 ± 0.037.
In the case of “NEDD4-like E3 ubiquitin-protein ligase WWP2 Y454G, O00308”, the abundance fitness is reported as -0.428 ± 0.045.
Substance “NEDD4-like E3 ubiquitin-protein ligase WWP2 P444L, O00308” has an abundance fitness of 0.036 ± 0.053.
For “NEDD4-like E3 ubiquitin-protein ligase WWP2 F472T, O00308”, the abundance fitness was -0.15 ± 0.065.
“NEDD4-like E3 ubiquitin-protein ligase WWP2 P488A, O00308” gave an abundance fitness of -0.31 ± 0.037.
With “NEDD4-like E3 ubiquitin-protein ligase WWP2 T469W, O00308” the abundance fitness was -0.502 ± 0.036.
With “NEDD4-like E3 ubiquitin-protein ligase WWP2 Y461W, O00308” the abundance fitness was -0.531 ± 0.053.
Substance “NEDD4-like E3 ubiquitin-protein ligase WWP2 R460S, O00308” has an abundance fitness of -0.153 ± 0.06.
“NEDD4-like E3 ubiquitin-protein ligase WWP2 P475A, O00308” gave an abundance fitness of -0.837 ± 0.037.
“NEDD4-like E3 ubiquitin-protein ligase WWP2 V463Q, O00308” showed an abundance fitness of -0.129 ± 0.08.
“NEDD4-like E3 ubiquitin-protein ligase WWP2 E443F, O00308” gave an abundance fitness of -0.287 ± 0.088.
Work on “Transcription factor SOX-11 I62D, P35716” yielded an abundance fitness of -0.203 ± 0.065.
For “NEDD4-like E3 ubiquitin-protein ligase WWP2 G489Y, O00308”, the abundance fitness was -0.334 ± 0.087.
With “NEDD4-like E3 ubiquitin-protein ligase WWP2 R460K, O00308” the abundance fitness was -0.088 ± 0.064.
Work on “NEDD4-like E3 ubiquitin-protein ligase WWP2 R493A, O00308” yielded an abundance fitness of -0.237 ± 0.12.
Work on “NEDD4-like E3 ubiquitin-protein ligase WWP2 T470L, O00308” yielded an abundance fitness of -0.437 ± 0.04.
With “NEDD4-like E3 ubiquitin-protein ligase WWP2 T471D, O00308” the abundance fitness was -0.647 ± 0.057.
Substance “NEDD4-like E3 ubiquitin-protein ligase WWP2 D474R, O00308” has an abundance fitness of -0.19 ± 0.039.
“NEDD4-like E3 ubiquitin-protein ligase WWP2 Y491M, O00308” gave an abundance fitness of 0.018 ± 0.061.
Substance “NEDD4-like E3 ubiquitin-protein ligase WWP2 D464R, O00308” has an abundance fitness of -0.94 ± 0.041.
“NEDD4-like E3 ubiquitin-protein ligase WWP2 M440W, O00308” showed an abundance fitness of -0.831 ± 0.3.
In the case of “NEDD4-like E3 ubiquitin-protein ligase WWP2 W450Y, O00308”, the abundance fitness is reported as -0.211 ± 0.081.
With “NEDD4-like E3 ubiquitin-protein ligase WWP2 G486L, O00308” the abundance fitness was -0.066 ± 0.042.
“NEDD4-like E3 ubiquitin-protein ligase WWP2 P447E, O00308” gave an abundance fitness of -0.185 ± 0.062.
“NEDD4-like E3 ubiquitin-protein ligase WWP2 A490M, O00308” showed an abundance fitness of 0.033 ± 0.053.
In the case of “NEDD4-like E3 ubiquitin-protein ligase WWP2 G482N, O00308”, the abundance fitness is reported as -0.007 ± 0.039.
“NEDD4-like E3 ubiquitin-protein ligase WWP2 K453E, O00308” showed an abundance fitness of -0.23 ± 0.058.
“NEDD4-like E3 ubiquitin-protein ligase WWP2 M440E, O00308” gave an abundance fitness of -0.085 ± 0.11.
“NEDD4-like E3 ubiquitin-protein ligase WWP2 S481E, O00308” showed an abundance fitness of 0.022 ± 0.071.
With “NEDD4-like E3 ubiquitin-protein ligase WWP2 K484W, O00308” the abundance fitness was -0.101 ± 0.052.
With “NEDD4-like E3 ubiquitin-protein ligase WWP2 P477S, O00308” the abundance fitness was -0.02 ± 0.037.
“NEDD4-like E3 ubiquitin-protein ligase WWP2 P475W, O00308” gave an abundance fitness of -0.829 ± 0.067.
“NEDD4-like E3 ubiquitin-protein ligase WWP2 G449I, O00308” gave an abundance fitness of -1.09 ± 0.18.
“NEDD4-like E3 ubiquitin-protein ligase WWP2 G458F, O00308” showed an abundance fitness of -0.539 ± 0.1.
Substance “NEDD4-like E3 ubiquitin-protein ligase WWP2 R468S, O00308” has an abundance fitness of -0.212 ± 0.053.
“NEDD4-like E3 ubiquitin-protein ligase WWP2 M452Q, O00308” gave an abundance fitness of -0.107 ± 0.063.
With “NEDD4-like E3 ubiquitin-protein ligase WWP2 S481R, O00308” the abundance fitness was -0.042 ± 0.034.
For “NEDD4-like E3 ubiquitin-protein ligase WWP2 S456W, O00308”, the abundance fitness was -0.192 ± 0.047.
Work on “NEDD4-like E3 ubiquitin-protein ligase WWP2 V463H, O00308” yielded an abundance fitness of -0.422 ± 0.093.
For “NEDD4-like E3 ubiquitin-protein ligase WWP2 K484T, O00308”, the abundance fitness was -0.025 ± 0.039.
“NEDD4-like E3 ubiquitin-protein ligase WWP2 D474P, O00308” showed an abundance fitness of -0.332 ± 0.085.
“NEDD4-like E3 ubiquitin-protein ligase WWP2 K484R, O00308” showed an abundance fitness of -0.062 ± 0.038.
Work on “NEDD4-like E3 ubiquitin-protein ligase WWP2 A445I, O00308” yielded an abundance fitness of -0.016 ± 0.049.
Work on “NEDD4-like E3 ubiquitin-protein ligase WWP2 Y454T, O00308” yielded an abundance fitness of -0.006 ± 0.057.
Work on “NEDD4-like E3 ubiquitin-protein ligase WWP2 S481H, O00308” yielded an abundance fitness of -0.17 ± 0.08.
“NEDD4-like E3 ubiquitin-protein ligase WWP2 E457Q, O00308” showed an abundance fitness of -0.022 ± 0.056.
“NEDD4-like E3 ubiquitin-protein ligase WWP2 Y491L, O00308” showed an abundance fitness of -0.016 ± 0.036.
Substance “NEDD4-like E3 ubiquitin-protein ligase WWP2 Q485L, O00308” has an abundance fitness of -0.053 ± 0.035.
Substance “NEDD4-like E3 ubiquitin-protein ligase WWP2 S487H, O00308” has an abundance fitness of 0.111 ± 0.073.
Work on “NEDD4-like E3 ubiquitin-protein ligase WWP2 H465S, O00308” yielded an abundance fitness of -0.247 ± 0.034.
With “NEDD4-like E3 ubiquitin-protein ligase WWP2 E443D, O00308” the abundance fitness was -0.06 ± 0.075.
With “NEDD4-like E3 ubiquitin-protein ligase WWP2 Q442C, O00308” the abundance fitness was 0.121 ± 0.079.
Work on “NEDD4-like E3 ubiquitin-protein ligase WWP2 R460T, O00308” yielded an abundance fitness of -0.032 ± 0.061.
In the case of “NEDD4-like E3 ubiquitin-protein ligase WWP2 Q485G, O00308”, the abundance fitness is reported as -0.004 ± 0.035.

Source: the Human Domainome abundance scans (Beltran et al. 2025)
